Results as given in US20230181748A1 (VIB VZW, published 2023).

Target: preformed, sonicated Aβ aggregates (UniProt P05067 672-713)
Experiment: cell-based or functional assay

Chain of preformed, sonicated Aβ aggregates (P05067 672-713): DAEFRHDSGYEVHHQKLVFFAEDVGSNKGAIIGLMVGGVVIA

aggregation seeding capacity of Aβ in Aβ biosensor cells (IC50): 1420 nM
B1: AbCap_25 (peptide)
peptide: KLWFFAGSGAPIGL
